In series [1] the target is T1, Replication Protein A (RPA), 70 kDa subunit RPA1 (Homo sapiens, UniProt P27694).
T1 construct: Full-length human (h)RPA heterotrimer, unmodified (Um-RPA); with RPA2 and RPA3 (RPA heterotrimer)
Put plainly: RPAi titration of purified Um-RPA binding to ssDNA (gel data, Fig. S6).

Series [2] addresses T2, Um-RPA (unmodified RPA heterotrimer) (Homo sapiens, UniProt P27694;P15927;P35244 1-616;1-270;1-121). Put plainly: BLI; KD only in Fig. 4D; higher KD than Ac-RPA; EMSA: 50 mM Tris-HCl pH 8.0, 2 mM DTT, 30 mM NaCl, 0.1 mg/ml BSA, 5% glycerol, 10 min 37 °C; FEN1/RPA flap EMSA: same with 20 mM NaCl, 20 uM EDTA; BLI: 1X HAT buffer, 31.25-250 nM RPA. The note with it: protein: recombinant; copies: 1;1;1; label: 3'-biotin (BLI); 5'-32P (EMSA); single strand.

A further series has as its target FEN1 (UniProt P39748 1-380). Nature of the series: EMSA; 50 nM FEN1, 20 uM EDTA; high-affinity binding; EMSA: 50 mM Tris-HCl pH 8.0, 2 mM DTT, 30 mM NaCl, 0.1 mg/ml BSA, 5% glycerol, 10 min 37 °C; FEN1/RPA flap EMSA: same with 20 mM NaCl, 20 uM EDTA; BLI: 1X HAT buffer, 31.25-250 nM RPA. The following applies: protein: recombinant; double flap: 20 nt 5' flap (strand 2), 1 nt 3' flap (strand 3); 1:2 1:3; 1 nt 5' overhang on strand 1. Background: In EMSA bound probe runs differently from free probe, usually more slowly.

The target of a further series is RPA1 DBD-F, unmodified (Homo sapiens, UniProt P27694 1-180). Nature of the series: EMSA; 25-150 nM protein, 25 nM DNA; EMSA: 50 mM Tris-HCl pH 8.0, 2 mM DTT, 30 mM NaCl, 0.1 mg/ml BSA, 5% glycerol, 10 min 37 °C; FEN1/RPA flap EMSA: same with 20 mM NaCl, 20 uM EDTA; BLI: 1X HAT buffer, 31.25-250 nM RPA. The following applies: protein: recombinant; tags: C-terminal His6; label: 5'-TAMRA; single strand.
RPA1 DBD-F, unmodified, sequence (P27694 1-180): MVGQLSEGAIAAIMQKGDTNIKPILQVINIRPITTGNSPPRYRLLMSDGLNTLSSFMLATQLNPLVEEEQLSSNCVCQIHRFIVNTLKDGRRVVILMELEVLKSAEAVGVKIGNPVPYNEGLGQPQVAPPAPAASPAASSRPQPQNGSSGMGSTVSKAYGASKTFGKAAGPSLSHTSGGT

In series [3] the target is T2, Um-RPA (unmodified RPA heterotrimer). Nature of the series: BLI; KD only in Fig. 4D; smallest fold difference to Ac-RPA; EMSA: 50 mM Tris-HCl pH 8.0, 2 mM DTT, 30 mM NaCl, 0.1 mg/ml BSA, 5% glycerol, 10 min 37 °C; FEN1/RPA flap EMSA: same with 20 mM NaCl, 20 uM EDTA; BLI: 1X HAT buffer, 31.25-250 nM RPA. The following applies: protein: recombinant; copies: 1;1;1; label: 3'-biotin (BLI); 5'-TAMRA (EMSA); single strand. A general note: In BLI a coated tip is dipped into the sample, and binding shifts an interference pattern.

T2 sequence (P27694 whole entry, chain 1 of 3): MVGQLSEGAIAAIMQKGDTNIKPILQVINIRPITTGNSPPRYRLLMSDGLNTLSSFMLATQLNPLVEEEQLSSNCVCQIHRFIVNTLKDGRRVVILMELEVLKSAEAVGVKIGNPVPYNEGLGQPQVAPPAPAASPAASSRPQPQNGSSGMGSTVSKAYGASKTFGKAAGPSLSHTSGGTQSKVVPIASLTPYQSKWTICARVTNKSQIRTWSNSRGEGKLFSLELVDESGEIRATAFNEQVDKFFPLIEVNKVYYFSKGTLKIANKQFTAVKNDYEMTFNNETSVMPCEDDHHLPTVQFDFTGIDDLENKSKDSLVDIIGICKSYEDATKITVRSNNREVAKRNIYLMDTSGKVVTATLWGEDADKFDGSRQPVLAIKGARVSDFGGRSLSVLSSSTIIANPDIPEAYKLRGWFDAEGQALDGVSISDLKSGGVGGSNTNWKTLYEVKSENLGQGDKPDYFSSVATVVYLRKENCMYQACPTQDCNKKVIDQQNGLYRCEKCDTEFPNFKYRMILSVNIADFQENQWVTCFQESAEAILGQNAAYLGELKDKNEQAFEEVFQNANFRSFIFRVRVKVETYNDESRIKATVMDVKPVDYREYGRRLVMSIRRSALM
T2 sequence (P15927 whole entry, chain 2 of 3): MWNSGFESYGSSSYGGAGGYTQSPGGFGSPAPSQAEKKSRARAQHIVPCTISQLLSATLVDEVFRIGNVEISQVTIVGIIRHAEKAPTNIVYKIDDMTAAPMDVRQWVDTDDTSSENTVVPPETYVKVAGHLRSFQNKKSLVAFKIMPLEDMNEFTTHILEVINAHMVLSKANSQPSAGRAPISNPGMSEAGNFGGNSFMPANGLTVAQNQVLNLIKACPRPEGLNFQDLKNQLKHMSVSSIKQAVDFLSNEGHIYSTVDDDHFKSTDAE
T2 sequence (P35244 whole entry, chain 3 of 3): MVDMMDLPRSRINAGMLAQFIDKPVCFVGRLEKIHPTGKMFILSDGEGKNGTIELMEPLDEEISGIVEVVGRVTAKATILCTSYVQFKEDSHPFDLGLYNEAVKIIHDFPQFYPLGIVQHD
T1 sequence (P27694 whole entry): as the sequence (P27694 whole entry, chain 1 of 3) above
T1 sequence (P15927 whole entry partner): as the sequence (P15927 whole entry, chain 2 of 3) above
T1 sequence (P35244 2-121 partner): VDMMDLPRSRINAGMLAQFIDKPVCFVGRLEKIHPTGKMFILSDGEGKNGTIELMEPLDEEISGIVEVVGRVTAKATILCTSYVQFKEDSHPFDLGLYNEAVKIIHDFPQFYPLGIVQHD
FEN1, sequence (P39748 whole entry): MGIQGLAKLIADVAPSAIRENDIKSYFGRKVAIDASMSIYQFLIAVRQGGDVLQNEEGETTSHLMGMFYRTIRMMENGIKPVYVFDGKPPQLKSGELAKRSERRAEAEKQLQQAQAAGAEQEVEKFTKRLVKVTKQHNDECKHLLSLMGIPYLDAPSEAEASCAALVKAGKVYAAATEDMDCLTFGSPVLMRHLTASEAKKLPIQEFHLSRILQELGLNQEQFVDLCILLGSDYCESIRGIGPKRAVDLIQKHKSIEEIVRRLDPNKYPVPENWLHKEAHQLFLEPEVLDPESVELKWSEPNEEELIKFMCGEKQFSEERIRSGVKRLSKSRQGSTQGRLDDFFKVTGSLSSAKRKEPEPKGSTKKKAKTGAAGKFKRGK

For orientation: IC50 means the concentration at which inhibition is half-maximal. For the molecule DA1-73, in series [1], the IC50 is 6.43 ± 0.29 µM.
Regarding `CCOc1ccc2cc(C3CC(c4ccc(I)cc4)=NN3C(=O)CCCC(=O)O)c(Cl)nc2c1` (stereo not shown) [TDRL-551], the IC50 in series [1] was determined as 4.46 ± 0.11 µM.
Turning to TTCACGCCTGTTAGTTAATTCACTGGCCGTAC (ssDNA) [LB.32 (32 nt)], the binding result in series [2] was “binds”.
On the same count and under the same terms, in the case of TTCACGCCTGTTAGTTAATTCACTGGCC (ssDNA) [LB.28 (28 nt)] it was “binds”.

B1: 20 nt double flap (U26:D43:T49) (structured_DNA)
DNA 1: GCCCAGTCACGTCGTTGTAAAACGGGTCGTGACTGGGAAAACCCTGGCG
DNA 2: TTAGTTAATTCACTGGCCGTCGTTTTACAACGACGTGACTGGG
DNA 3: CGCCAGGGTTTTCCCAGTCACGACCA
As to B1, the binding result with FEN1 was “binds”.
Regarding TTCACGAGATTTACTTATTTCACTGCGGCT (ssDNA) [LB.30 (30 nt)], the binding result with RPA1 DBD-F, unmodified was “no binding”.
For the molecule TTCACTATAACTACCTAATCTTCTGGCCGTACTGAACTACTGACA (ssDNA) [LB.45 (45 nt)], the binding result in series [3] is reported as “binds”.
